B1: AIMP2-DX2 epitope peptide (amino acid residues 42 to 52, GHVQDYGALKD, of the AIMP2-DX2 protein) (peptide)
peptide: GHVQDYGALKD
B2: H5 Fab (Fab, V domains shown)
VH: QEQLVESGGGLVTPGGTLTLTCTASGFTISSYHMTWVRQAPGKGLEWIGVISNSGGTSYANWAKGRFTISKTSTTVDLKITSPTTEDTATYFCVRGVPGINSNLWGQGTLVTISS
VL: AQVLTQTPSSVSAAVGGTVTINCQSSQSVYSGNWLAWYQQKPGQPPKLLIYSTSTLASGVPSRFKGSGSGTQFTLTVSDLECDDAATYYCAGDYDGYKNAFGGGTKVVVKR
notes: Detected with anti-HA tag or anti-human Fab antibody, so vector tags may be present; they are not described; also called antibody fragment H5 Fab; antibody (Fab) of colon H5
B3: H5 IgG antibody (antibody, V domains shown)
VH: B2 VH
VL: B2 VL
notes: also called H5 antibody (IgG); H5 antibody
B4: AIMP2-DX2 protein (other)
chain: MPMYQVKPYHGGGAPLRVELPTCMYRLPNVHGRSYGPAPGAGHVQDYGALKDIVINANPASPPLSLLVLHRLLCEHFRVLSTVHTHSSVKSVPENLLKCFGEQNKKQPRQDYQLGFTLIWKNVPKTQMKFSIQTMCPIEGEGNIARFLFSLFGQKHNAVNATLIDSWVDIAIFQLKEGSSKEKAAVFRSMNSALGKSPWLAGNELTVADVVLWSVLQQIGGCSVTVPANVQRWMRSCENLAPFNTALKLLK
notes: Endogenous protein in H460 or SW460 cell lysates in the Western blots; LexA/B42 fusion in yeast two hybrid; 35S-labelled in vitro translation product (pET-28a) in the pull-down; also called p38DX2; AIMP2 lacking exon 2

Experiments:
H5 Fab = target: B2; assay: antigen pre-adsorption, 100 µg/ml peptide with H5 Fab, Western blot of H460 lysate (FIG. 18)
Procedure: Firstly, antigen pre-adsorption analysis was conducted in order to confirm whether the prepared H5 Fab specifically binds to the AIMP2-DX2. After electrophoresis of cell lysates of H460 lung cancer cells which expressed the AIMP2-DX2, Western blot analysis was performed using a H5 Fab in the presence of 100 μg/ml of the AIMP2-DX2 epitope polypeptide ([…]) (indicated as “+” in FIG. 18) and a H5 Fab without the addition of the AIMP2-DX2 epitope peptide (indicated as “−” in FIG. 18), respectively.

[1] = target: T1, AIMP2 protein (wild type, full-length) (human, UniProt Q13155 1-312, limits assumed); assay: Western blot of H460 cell lysates (FIG. 22)
T1 construct: 217 is written here; B42 fusion (pJG4-5) in yeast two hybrid; 35S-labelled in vitro translation product in the pull-down; endogenous in A549, DU145 and H460 cells; also called AIMP2-F; p38
T1 sequence: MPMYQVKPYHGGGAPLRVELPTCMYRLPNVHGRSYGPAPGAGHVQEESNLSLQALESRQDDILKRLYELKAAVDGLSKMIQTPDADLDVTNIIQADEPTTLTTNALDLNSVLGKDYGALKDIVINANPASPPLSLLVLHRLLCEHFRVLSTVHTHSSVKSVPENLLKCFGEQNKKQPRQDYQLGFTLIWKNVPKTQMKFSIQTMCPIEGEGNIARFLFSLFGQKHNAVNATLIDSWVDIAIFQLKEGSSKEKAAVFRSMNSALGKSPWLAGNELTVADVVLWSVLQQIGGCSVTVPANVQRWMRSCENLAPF
Procedure: Lastly, it was tested whether H5 antibody is capable of differentiating AIMP2-DX2 from wild type AIMP2 protein (See FIG. 22). Western blot analysis was performed on H460 cell lysates using the H5 antibody.

[2] = target: T2, AIMP2-DX2 with twenty three (23) N-terminal amino acids deleted, fused with strep tag (human, UniProt Q13155 24-320); assay: Western blot of HEK293T lysates (FIG. 20a)
T2 construct: Expressed in HEK293T cells, tested in cell lysate; also called Δ23-DX2; Δ23; not shown: strep tag of thirty amino acids including a linker peptide
T2 sequence: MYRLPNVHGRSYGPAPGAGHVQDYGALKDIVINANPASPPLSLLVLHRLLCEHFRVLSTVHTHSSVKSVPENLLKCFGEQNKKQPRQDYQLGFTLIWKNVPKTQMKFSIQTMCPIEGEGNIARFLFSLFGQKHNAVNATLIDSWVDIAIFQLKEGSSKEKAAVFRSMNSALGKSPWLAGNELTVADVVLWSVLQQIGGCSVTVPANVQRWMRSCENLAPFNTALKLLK
From the text: (§1) FIG. 20a and FIG. 20b show a test result of determining the effect of N-terminal amino acid deletion of the AIMP2-DX2 protein on the binding between the H5 Fab and the AIMP2-DX2 protein. […] Being fused with strep tag, the AIMP2-DX2 proteins expressed in HEK293T cells were the full-length AIMP2-DX2 protein (“F-DX2” or “F”) and its N-terminal deleted isotypes (“42-DX2” or “42” for two (2) amino acid deletion; “423-DX2” or “423” for twenty three (23) amino acid deletion; “433-DX2” or “433” for thirty three (33) amino acid deletion), respectively. […] “EV” means an empty vector.
(§2) Further, the effect of N-terminal amino acid deletion of the AIMP2-DX2 protein on the binding between H5 Fab and AIMP2-DX2 protein was analyzed (See FIG. 20). It was reported that N-terminal amino acid residues of the AIMP2-DX2 exert a significant effect on the solubility of the AIMP2-DX2. AIMP2-DX2 derivatives in which the N-terminal two (2), twenty three (23) or thirty three (33) amino acid residues were deleted, respectively, were prepared (See FIG. 20b). The full-length AIMP2-DX2 and its isotypes were fused with strep tag and then expressed in the HEK293T cells, followed by Western blot analysis using H5 Fab.

[3] = target: T3, AIMP2-DX2 with two (2) N-terminal amino acids deleted, fused with strep tag (human, UniProt Q13155 3-320); assay: Western blot of HEK293T lysates (FIG. 20a)
T3 construct: Expressed in HEK293T cells, tested in cell lysate; also called Δ2-DX2; Δ2; not shown: strep tag of thirty amino acids including a linker peptide
T3 sequence: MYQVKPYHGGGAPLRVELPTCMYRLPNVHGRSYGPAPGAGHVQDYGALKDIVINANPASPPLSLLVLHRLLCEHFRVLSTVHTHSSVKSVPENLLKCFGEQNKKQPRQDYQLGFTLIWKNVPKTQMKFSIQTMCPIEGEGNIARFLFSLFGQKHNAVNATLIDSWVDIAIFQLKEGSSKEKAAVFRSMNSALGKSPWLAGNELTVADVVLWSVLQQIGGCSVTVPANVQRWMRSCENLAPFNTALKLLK
From the text: as §1, §2

[4] = target: T4, AIMP2-DX2 with thirty three (33) N-terminal amino acids deleted, fused with strep tag (human, UniProt Q13155 34-320); assay: Western blot of HEK293T lysates (FIG. 20a)
T4 construct: Expressed in HEK293T cells, tested in cell lysate; also called Δ33-DX2; Δ33; not shown: strep tag of thirty amino acids including a linker peptide
T4 sequence: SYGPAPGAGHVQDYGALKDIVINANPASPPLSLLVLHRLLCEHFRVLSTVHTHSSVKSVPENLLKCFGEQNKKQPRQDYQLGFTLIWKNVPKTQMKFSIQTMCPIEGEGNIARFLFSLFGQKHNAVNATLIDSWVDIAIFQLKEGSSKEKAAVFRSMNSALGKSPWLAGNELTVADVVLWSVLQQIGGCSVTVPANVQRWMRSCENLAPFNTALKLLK
From the text: as §1, §2

[5] = target: B1; assay: surface plasmon resonance, H5 IgG on CM5 chip, peptide in flow (FIG. 21a)
From the text: H5 antibody and IgG proteins were coated on the CM5 chips, while the exemplary AIMP2-DX2 epitope peptide (i.e. amino acid residues 42 to 52 ([…]) as shown in SEQ ID NO: 2 or SEQ ID NO: 17) at various concentrations was flowed over the chip. As shown in FIG. 21a and FIG. 21b, the binding affinity between H5 IgG antibody and the AIMP2-DX2 epitope peptide was indicated in sensorgram. X axis of sensorgram indicates time (second, s), while y axis means response (response unit, RU). The description in a box indicates a concentration of the AIMP2-DX2 epitope peptide in nM.
Still further, the binding affinity between H5 IgG antibody and the exemplary AIMP2-DX2 epitope peptide was determined by using surface plasmon resonance analysis (See FIG. 21). The H5 antibody (IgG) and IgG proteins were coated on the CM5 chips, while the exemplary AIMP2-DX2 epitope peptide at various concentrations was flowed over the chip to monitor the real time association and dissociation between H5 antibody and the exemplary AIMP2-DX2 epitope peptide. Analysis reagents and buffer were injected at the flow velocity of 15 μl/min. for 6 min, followed by washing for 20 min. Analysis was performed in sensorgram in which a response result of a blank without protein coating is subtracted from a response results between H5 antibody or IgG and the AIMP2-DX2 epitope peptides.

FUSE-binding protein = target: T5, FUSE-binding protein (UniProt Q96AE4 1-644, limits assumed); assay: yeast two hybrid (FIG. 4e)
T5 construct: Yeast two hybrid fusion; construct not described; also called FBP
T5 sequence (looked up): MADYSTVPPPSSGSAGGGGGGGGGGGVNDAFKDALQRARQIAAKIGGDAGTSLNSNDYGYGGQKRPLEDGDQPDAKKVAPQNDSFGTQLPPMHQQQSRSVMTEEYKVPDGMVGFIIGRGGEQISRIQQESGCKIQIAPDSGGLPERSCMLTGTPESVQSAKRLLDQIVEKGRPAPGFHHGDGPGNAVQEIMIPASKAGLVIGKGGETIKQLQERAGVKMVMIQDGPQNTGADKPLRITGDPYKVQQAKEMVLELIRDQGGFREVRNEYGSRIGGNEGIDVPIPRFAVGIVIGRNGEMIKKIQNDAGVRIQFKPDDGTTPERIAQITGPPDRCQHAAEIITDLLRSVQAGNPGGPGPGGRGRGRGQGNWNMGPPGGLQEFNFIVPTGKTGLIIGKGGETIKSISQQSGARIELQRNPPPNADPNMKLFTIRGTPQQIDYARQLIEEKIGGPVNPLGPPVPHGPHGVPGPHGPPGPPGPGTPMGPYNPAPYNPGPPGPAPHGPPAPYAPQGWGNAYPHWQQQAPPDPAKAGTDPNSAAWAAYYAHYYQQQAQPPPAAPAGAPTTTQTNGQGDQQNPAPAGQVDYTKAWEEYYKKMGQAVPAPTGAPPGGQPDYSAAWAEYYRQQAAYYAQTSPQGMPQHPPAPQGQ

Smad2 (human) = target: T6, Smad2 (human) (human, UniProt Q15796 1-467, limits assumed); assay: yeast two hybrid (FIG. 4e)
T6 construct: LexA fusion (pEG202) in yeast two hybrid; also called R-Smad2; Lex-Smad2
T6 sequence (Q15796 whole entry, the tested form may be a part): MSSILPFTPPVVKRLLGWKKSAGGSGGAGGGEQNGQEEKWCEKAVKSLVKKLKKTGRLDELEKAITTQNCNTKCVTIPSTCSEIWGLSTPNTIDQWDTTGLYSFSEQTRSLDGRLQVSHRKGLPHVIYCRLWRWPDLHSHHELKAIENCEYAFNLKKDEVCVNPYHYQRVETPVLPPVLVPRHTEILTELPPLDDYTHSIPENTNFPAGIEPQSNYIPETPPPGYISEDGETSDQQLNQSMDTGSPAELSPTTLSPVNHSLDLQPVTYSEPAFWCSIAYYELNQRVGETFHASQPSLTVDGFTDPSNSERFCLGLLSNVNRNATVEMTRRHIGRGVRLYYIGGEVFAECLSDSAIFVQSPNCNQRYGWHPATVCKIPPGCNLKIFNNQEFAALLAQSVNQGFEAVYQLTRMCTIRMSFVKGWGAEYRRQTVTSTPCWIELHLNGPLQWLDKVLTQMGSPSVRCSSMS

B1
binding result (H5 Fab): binds

B2
binding result [1]: no binding
binding result [2]: binds
binding result [3]: binds
binding result [4]: binds

B3
binding result [5]: binds

B4
binding result (FUSE-binding protein): no binding
binding result (Smad2 (human)): no binding

Reference: patent US20160272721A1 (NEOMICS, published 2016)
